The experiment deals with Caf1-FLAG epitope NT (Yersinia pestis, UniProt P26948 1-170). The experiment is described as follows: co-expression in E. coli, western blot of partly heat-dissociated polymer. (In general: A western blot detects proteins with antibodies after separation by electrophoresis.)

B1: Caf1 WT (naturally occurring Caf1 polypeptide monomer from Yersinia pestis; fraction 1 antigen polymer) (other)
chain: ADLTASTTATATLVEPARITLTYKEGAPITIMDNGNIDTELLVGTLTLGGYKTGTTSTSVNFTDAAGDPMYLTFTSQDGNNHQFTTKVIGKDSRDFDISPKVNGENLVGDDVVLATGSQDFFVRSIGSKGGKLAAGKYTDAVTVTVSNQ
Consider B1, for which the binding result is “binds”.

For the origin of these results see patent US20150299272A1 (UNIVERSITY OF NEWCASTLE UPON TYNE, published 2015).
